Patent US20230303698A1 (published 2023)
Where two headings read alike, the source gives them in different places. Blank lines part the entries; values can stand above or below the binder they belong to.

What was measured:
[1] = target: T1, human 4-1BB (human, UniProt Q07011 24-255); experiment: FACS
[2] = target: T2, human PSMA (human, UniProt Q04609 1-750); experiment: FACS binding to LNCaP cells
[3] = target: T3, human OX40 (human, UniProt P43489 29-277); experiment: FACS
T3 chain: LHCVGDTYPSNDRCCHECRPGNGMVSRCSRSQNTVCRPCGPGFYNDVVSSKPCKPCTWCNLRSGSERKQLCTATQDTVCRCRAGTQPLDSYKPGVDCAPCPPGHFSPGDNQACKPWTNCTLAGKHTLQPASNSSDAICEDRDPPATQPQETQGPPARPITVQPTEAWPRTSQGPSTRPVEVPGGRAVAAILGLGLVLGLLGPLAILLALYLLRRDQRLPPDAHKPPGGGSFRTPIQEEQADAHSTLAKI

[4] = target: T2, human PSMA; experiment: FACS binding to LNCaP cells; remark: listed apart in the source
[5] = target: T4, cynomolgus monkey 4-1BB (cynomolgus monkey); experiment: FACS
T4 chain: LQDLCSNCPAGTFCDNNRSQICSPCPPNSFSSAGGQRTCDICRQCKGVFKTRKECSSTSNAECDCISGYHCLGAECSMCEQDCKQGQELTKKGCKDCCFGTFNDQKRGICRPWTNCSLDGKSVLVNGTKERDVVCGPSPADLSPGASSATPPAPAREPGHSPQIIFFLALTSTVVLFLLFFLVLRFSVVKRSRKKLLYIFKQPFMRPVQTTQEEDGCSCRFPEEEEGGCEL

[6] = target: T5, human PD-L1 (human, UniProt Q9NZQ7 19-290); experiment: FACS; panel A
T5 sequence (Q9NZQ7 19-290): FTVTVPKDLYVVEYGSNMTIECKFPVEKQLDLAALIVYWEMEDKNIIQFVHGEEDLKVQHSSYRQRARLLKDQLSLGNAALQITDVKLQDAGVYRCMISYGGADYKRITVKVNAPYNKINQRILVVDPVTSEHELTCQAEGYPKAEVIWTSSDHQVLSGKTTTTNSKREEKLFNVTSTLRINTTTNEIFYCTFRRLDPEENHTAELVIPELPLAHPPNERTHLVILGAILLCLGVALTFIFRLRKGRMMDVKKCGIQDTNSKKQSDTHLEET

[7] = target: T5, human PD-L1; experiment: FACS; panel B
[8] = target: T5, human PD-L1; experiment: FACS; panel C
[9] = target: T5, human PD-L1; experiment: FACS binding to CHO-K1/hPD-L1 cells
[10] = target: human CLDN18.2; experiment: FACS binding to NUGC-4 cells
[11] = target: T5, human PD-L1; experiment: FACS
[12] = target: T1, human 4-1BB; experiment: FACS; remark: listed apart in the source
[13] = target: T6, cynomolgus monkey OX40-His protein (cynomolgus monkey); experiment: ELISA
T6 chain: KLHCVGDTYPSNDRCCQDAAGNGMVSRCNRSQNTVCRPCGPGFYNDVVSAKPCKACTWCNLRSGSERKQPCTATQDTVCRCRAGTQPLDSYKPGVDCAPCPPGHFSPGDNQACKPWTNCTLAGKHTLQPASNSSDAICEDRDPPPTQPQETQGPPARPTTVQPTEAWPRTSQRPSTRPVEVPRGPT

[14] = target: T1, human 4-1BB; experiment: FACS; remark: listed apart in the source

T2 sequence (Q04609 whole entry): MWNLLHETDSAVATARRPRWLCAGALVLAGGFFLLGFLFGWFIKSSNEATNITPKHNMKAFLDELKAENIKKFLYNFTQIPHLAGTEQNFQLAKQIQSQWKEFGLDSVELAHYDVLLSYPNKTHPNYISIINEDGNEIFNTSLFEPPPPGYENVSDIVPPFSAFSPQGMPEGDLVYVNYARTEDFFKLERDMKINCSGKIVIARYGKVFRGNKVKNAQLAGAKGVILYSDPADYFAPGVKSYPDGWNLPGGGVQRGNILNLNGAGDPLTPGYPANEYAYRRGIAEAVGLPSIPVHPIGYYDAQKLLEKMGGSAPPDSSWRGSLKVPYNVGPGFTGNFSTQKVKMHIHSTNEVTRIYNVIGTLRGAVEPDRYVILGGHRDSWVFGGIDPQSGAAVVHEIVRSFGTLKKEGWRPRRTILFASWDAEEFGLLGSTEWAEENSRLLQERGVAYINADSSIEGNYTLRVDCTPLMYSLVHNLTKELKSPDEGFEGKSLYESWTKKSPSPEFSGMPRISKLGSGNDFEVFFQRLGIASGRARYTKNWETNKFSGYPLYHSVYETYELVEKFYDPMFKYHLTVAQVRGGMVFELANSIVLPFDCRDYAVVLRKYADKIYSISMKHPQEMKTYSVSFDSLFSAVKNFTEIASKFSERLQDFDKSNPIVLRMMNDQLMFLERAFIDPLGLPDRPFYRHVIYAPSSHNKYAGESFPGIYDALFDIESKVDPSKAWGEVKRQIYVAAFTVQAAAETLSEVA

EC50 [1]: 0.951 nM | EC50 [2]: 0.876 nM
B1: PR003557 (bispecific antibody)
light: DIQMTQSPSSLSASIGDRVTITCRASQSINSYLNWYQQKPGKAPKLLIYTASSLLSGVPSRFSASGSWTDFSLTISSLQPEDFATYYCQQSFSTPYTFGQGTNLEIKRTVAAPSVFIFPPSDEQLKSGTASVVCLLNNFYPREAKVQWKVDNALQSGNSQESVTEQDSKDSTYSLSSTLTLSKADYEKHKVYACEVTHQGLSSPVTKSFNRGEC
heavy: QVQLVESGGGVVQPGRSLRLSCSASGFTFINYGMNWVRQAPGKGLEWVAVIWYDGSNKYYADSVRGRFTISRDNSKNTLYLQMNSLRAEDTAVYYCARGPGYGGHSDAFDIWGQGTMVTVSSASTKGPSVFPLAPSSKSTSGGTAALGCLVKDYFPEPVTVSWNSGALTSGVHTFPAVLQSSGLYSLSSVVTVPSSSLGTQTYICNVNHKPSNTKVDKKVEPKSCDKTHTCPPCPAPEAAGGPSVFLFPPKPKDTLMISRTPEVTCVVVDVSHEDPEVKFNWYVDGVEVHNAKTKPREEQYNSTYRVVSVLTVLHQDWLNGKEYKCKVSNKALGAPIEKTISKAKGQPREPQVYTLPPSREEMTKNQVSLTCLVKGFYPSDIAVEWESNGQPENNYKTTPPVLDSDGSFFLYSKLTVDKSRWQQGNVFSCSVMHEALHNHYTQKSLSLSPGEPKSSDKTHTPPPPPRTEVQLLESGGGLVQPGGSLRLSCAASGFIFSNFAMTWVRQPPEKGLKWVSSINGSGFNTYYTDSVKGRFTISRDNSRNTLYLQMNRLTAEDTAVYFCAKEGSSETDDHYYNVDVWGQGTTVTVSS

EC50 [1]: 0.819 nM | EC50 [2]: 0.802 nM
B2: PR003555 (bispecific antibody)
light: B1 light
heavy: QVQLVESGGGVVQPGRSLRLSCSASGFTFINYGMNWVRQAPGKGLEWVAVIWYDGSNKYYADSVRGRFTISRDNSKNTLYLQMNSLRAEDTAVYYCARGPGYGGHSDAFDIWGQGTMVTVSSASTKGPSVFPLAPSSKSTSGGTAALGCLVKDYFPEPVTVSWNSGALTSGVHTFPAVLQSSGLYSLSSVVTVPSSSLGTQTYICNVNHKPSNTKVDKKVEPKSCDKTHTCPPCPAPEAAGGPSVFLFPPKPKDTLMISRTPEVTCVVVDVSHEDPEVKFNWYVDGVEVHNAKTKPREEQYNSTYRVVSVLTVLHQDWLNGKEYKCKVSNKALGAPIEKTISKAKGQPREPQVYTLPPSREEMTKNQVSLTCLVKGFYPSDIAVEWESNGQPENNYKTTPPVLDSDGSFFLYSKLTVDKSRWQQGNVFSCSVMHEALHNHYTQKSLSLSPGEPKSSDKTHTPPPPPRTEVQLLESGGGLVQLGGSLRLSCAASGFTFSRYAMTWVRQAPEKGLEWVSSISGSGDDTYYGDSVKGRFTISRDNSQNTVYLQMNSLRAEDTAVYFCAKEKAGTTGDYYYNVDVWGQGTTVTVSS

EC50 [3]: 4.96 nM | EC50 [4]: 6.7 nM
B3: PR004284 (bispecific antibody)
light: B1 light
heavy: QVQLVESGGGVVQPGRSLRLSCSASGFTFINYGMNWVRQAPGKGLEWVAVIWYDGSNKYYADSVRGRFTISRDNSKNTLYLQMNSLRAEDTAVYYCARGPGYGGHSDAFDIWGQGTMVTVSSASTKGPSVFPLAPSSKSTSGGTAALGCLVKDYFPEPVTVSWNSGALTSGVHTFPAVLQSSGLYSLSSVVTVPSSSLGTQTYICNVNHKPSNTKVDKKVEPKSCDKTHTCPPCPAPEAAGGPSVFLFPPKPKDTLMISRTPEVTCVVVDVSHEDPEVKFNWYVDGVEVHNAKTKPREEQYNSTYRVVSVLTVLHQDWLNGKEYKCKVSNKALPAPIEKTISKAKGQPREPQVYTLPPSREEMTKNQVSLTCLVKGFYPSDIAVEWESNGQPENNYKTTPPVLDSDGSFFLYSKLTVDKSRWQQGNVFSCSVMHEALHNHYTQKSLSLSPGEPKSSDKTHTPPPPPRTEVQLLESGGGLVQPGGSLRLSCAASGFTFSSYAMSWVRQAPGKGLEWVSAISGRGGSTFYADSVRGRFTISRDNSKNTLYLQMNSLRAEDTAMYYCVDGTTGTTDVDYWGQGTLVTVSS

EC50 [1]: 0.476 nM | EC50 [2]: 0.687 nM
B4: PR003556 (bispecific antibody)
light: B1 light
heavy: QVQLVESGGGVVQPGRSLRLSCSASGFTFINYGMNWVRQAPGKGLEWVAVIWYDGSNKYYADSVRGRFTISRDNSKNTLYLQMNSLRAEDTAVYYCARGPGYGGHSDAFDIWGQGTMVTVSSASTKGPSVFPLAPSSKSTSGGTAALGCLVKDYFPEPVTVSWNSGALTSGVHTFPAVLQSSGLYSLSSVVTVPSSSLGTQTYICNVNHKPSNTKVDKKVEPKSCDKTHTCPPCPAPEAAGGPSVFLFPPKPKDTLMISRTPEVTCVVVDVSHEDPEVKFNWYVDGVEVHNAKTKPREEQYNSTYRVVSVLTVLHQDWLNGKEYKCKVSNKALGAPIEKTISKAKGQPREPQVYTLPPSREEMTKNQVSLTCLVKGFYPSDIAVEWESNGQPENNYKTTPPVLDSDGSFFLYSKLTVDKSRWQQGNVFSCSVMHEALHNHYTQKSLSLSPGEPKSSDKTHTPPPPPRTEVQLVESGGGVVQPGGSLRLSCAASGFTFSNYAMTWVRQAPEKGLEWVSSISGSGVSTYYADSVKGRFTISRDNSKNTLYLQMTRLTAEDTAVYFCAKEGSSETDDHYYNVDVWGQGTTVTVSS

EC50 [10]: 4.98 nM
B8: PR002726, anti-CLDN18.2 monoclonal antibody 13E6F4 hIgG1 (antibody, V domains shown)
VH: EVQLLESGGGLVQPGGSLRLSCAASGFTFSSFVMSWVRQAPGKGLEWVSTISGSGRSTYYADSVKGRFTISRDNSKNTLHLQMNSLRAEDTAVYYCAKDAAAAGTKFDYWGQGTLVTVSS
VL: EIVLTQSPATLSLSPGERATLSCRASQSVSSYLAWYQQKPGQAPRLLIYDASNRATGIPARFSGSGSGTDFTLTISSLEPEDFAVYYCQQRSNWPLTFGGGTKVEIKR

EC50 [11]: 1.56 nM | EC50 [12]: 1.9 nM
B9: PR003549 (bispecific antibody)
light: DIQMTQSPSTLSASVGDRVTVTCRASQSIYIWLAWYQQKPGKAPNLLIYKASSLETGVPSRFSGSGSGTEFTLTISSLQPDDFATYYCQQYYGSSRTFGQGTKVEIKRTVAAPSVFIFPPSDEQLKSGTASVVCLLNNFYPREAKVQWKVDNALQSGNSQESVTEQDSKDSTYSLSSTLTLSKADYEKHKVYACEVTHQGLSSPVTKSFNRGEC
heavy: EVQLVESGGGLVQPGGSLRLSCAASGFTFSSYWMSWVRQAPGKGLEWVANIKQEGSEKYYVDSVKGRFTISRDNAKNSLYLQMNSLRAEDTAVYYCARDRAVAGAFDIWGQGTMVTVSSASTKGPSVFPLAPSSKSTSGGTAALGCLVKDYFPEPVTVSWNSGALTSGVHTFPAVLQSSGLYSLSSVVTVPSSSLGTQTYICNVNHKPSNTKVDKKVEPKSCDKTHTCPPCPAPEAAGGPSVFLFPPKPKDTLMISRTPEVTCVVVDVSHEDPEVKFNWYVDGVEVHNAKTKPREEQYNSTYRVVSVLTVLHQDWLNGKEYKCKVSNKALGAPIEKTISKAKGQPREPQVYTLPPSREEMTKNQVSLTCLVKGFYPSDIAVEWESNGQPENNYKTTPPVLDSDGSFFLYSKLTVDKSRWQQGNVFSCSVMHEALHNHYTQKSLSLSPGEPKSSDKTHTPPPPPRTEVQLLESGGGLVQLGGSLRLSCAASGFTFSRYAMTWVRQAPEKGLEWVSSISGSGDDTYYGDSVKGRFTISRDNSQNTVYLQMNSLRAEDTAVYFCAKEKAGTTGDYYYNVDVWGQGTTVTVSS

EC50 [3]: 3.98 nM | EC50 [9]: 1.37 nM
B10: PR003789 (bispecific antibody)
light: B9 light
heavy: EVQLVESGGGLVQPGGSLRLSCAASGFTFSSYWMSWVRQAPGKGLEWVANIKQEGSEKYYVDSVKGRFTISRDNAKNSLYLQMNSLRAEDTAVYYCARDRAVAGAFDIWGQGTMVTVSSASTKGPSVFPLAPSSKSTSGGTAALGCLVKDYFPEPVTVSWNSGALTSGVHTFPAVLQSSGLYSLSSVVTVPSSSLGTQTYICNVNHKPSNTKVDKKVEPKSCDKTHTCPPCPAPEAAGGPSVFLFPPKPKDTLMISRTPEVTCVVVDVSHEDPEVKFNWYVDGVEVHNAKTKPREEQYNSTYRVVSVLTVLHQDWLNGKEYKCKVSNKALGAPIEKTISKAKGQPREPQVYTLPPSREEMTKNQVSLTCLVKGFYPSDIAVEWESNGQPENNYKTTPPVLDSDGSFFLYSKLTVDKSRWQQGNVFSCSVMHEALHNHYTQKSLSLSPGAEPKSSDKTHTPPPPPEVQLLESGGGLVQPGGSLRLSCAASGFTFSSYAMSWVRQAPGKGLEWVSAISGRGGSTFYADSVRGRFTISRDNSKNTLYLQMNSLRAEDTAMYYCVDGTTGTTDVDYWGQGTLVTVSS

The remaining lines, values behind:

B5: Anti-4-1BB monoclonal antibody utomilumab analog (antibody, V domains shown)
VH: EVQLVQSGAEVKKPGESLRISCKGSGYSFSTYWISWVRQMPGKGLEWMGKIYPGDSYTNYSPSFQGQVTISADKSISTAYLQWSSLKASDTAMYYCARGYGIFDYWGQGTLVTVSS
VL: SYELTQPPSVSVSPGQTASITCSGDNIGDQYAHWYQQKPGQSPVLVIYQDKNRPSGIPERFSGSNSGNTATLTISGTQAMDEADYYCATYTGFGSLAVFGGGTKLTVLG
EC50 [5]: 0.485 nM

B6: PR000265, anti-PD-L1 91G3H5H3(D54E), hIgG1(N297A) (antibody, V domains shown)
VH: EVQLVESGGGLVQPGGSLRLSCAASGFTFSSYWMSWVRQAPGKGLEWVANIKQEGSEKYYVDSVKGRFTISRDNAKNSLYLQMNSLRAEDTAVYYCARDRAVAGAFDIWGQGTMVTVSS
VL: DIQMTQSPSTLSASVGDRVTVTCRASQSIYIWLAWYQQKPGKAPNLLIYKASSLETGVPSRFSGSGSGTEFTLTISSLQPDDFATYYCQQYYGSSRTFGQGTKVEIKR
EC50 [6]: 0.781 nM | EC50 [7]: 0.356 nM | EC50 [8]: 1.56 nM | EC50 [9]: 1.26 nM

B7: PR001758, anti-4-1BB heavy-chain antibody 1016P0010B11 (antibody, V domains shown)
VH: EVQLLESGGGLVQLGGSLRLSCAASGFTFSRYAMTWVRQAPEKGLEWVSSISGSGDDTYYGDSVKGRFTISRDNSQNTVYLQMNSLRAEDTAVYFCAKEKAGTTGDYYYNVDVWGQGTTVTVSS
EC50 [5]: 0.575 nM

B11: PR001331, anti-PSMA monoclonal antibody 2E8A1B1 hIgG1 (antibody, V domains shown)
VH: QVQLVESGGGVVQPGRSLRLSCSASGFTFINYGMNWVRQAPGKGLEWVAVIWYDGSNKYYADSVRGRFTISRDNSKNTLYLQMNSLRAEDTAVYYCARGPGYGGHSDAFDIWGQGTMVTVSS
VL: DIQMTQSPSSLSASIGDRVTITCRASQSINSYLNWYQQKPGKAPKLLIYTASSLLSGVPSRFSASGSWTDFSLTISSLQPEDFATYYCQQSFSTPYTFGQGTNLEIKR
EC50 [2]: 0.702 nM | EC50 [4]: 2.58 nM

B12: PR002067, anti-OX40 heavy-chain antibody R1026P079E12 (antibody, V domains shown)
VH: EVQLLESGGGLVQPGGSLRLSCAASGFTFSSYAMSWVRQAPGKGLEWVSAISGRGGSTFYADSVRGRFTISRDNSKNTLYLQMNSLRAEDTAMYYCVDGTTGTTDVDYWGQGTLVTVSS
EC50 [3]: 17.8 nM | EC50 [13]: 0.232 nM

B13: Anti-OX40 monoclonal antibody vonlerolizumab analog (antibody, V domains shown)
VH: EVQLVQSGAEVKKPGASVKVSCKASGYTFTDSYMSWVRQAPGQGLEWIGDMYPDNGDSSYNQKFRERVTITRDTSTSTAYLELSSLRSEDTAVYYCVLAPRWYFSVWGQGTLVTVSS
VL: DIQMTQSPSSLSASVGDRVTITCRASQDISNYLNWYQQKPGKAPKLLIYYTSRLRSGVPSRFSGSGSGTDFTLTISSLQPEDFATYYCQQGHTLPPTFGQGTKVEIKR
EC50 [13]: 0.194 nM

B14: PR001760, anti-4-1BB heavy-chain antibody 1016P0011G10 (antibody, V domains shown)
VH: EVQLVESGGGVVQPGGSLRLSCAASGFTFSNYAMTWVRQAPEKGLEWVSSISGSGVSTYYADSVKGRFTISRDNSKNTLYLQMTRLTAEDTAVYFCAKEGSSETDDHYYNVDVWGQGTTVTVSS
EC50 [12]: 3.76 nM | EC50 [5]: 0.443 nM | EC50 [14]: 3.76 nM
